The labels stand for the following.
B1: FABP7 peptide #17 (Aa 82-96 of SEQ ID NO: 1) (peptide)
peptide: KSVVSLDGDKLVHIQ
notes: also called Pool 3 FABP7
B2: FABP7 peptide #20 (Aa 97-111 of SEQ ID NO: 1) (peptide)
peptide: KWDGKETNFVREIKD
notes: also called Pool 4 FABP7
B3: FABP7 peptide #22 (Aa 107-121 of SEQ ID NO: 6) (peptide)
peptide: REIKDGKMVMTLTFG
notes: FABP7 isoform 1 peptide; also called Pool 4 FABP7
B4: FABP7 peptide #18 (Aa 87-101 of SEQ ID NO: 1) (peptide)
peptide: LDGDKLVHIQKWDGK
notes: also called Pool 3 FABP7
B5: FABP7 peptide #19 (Aa 92-106 of SEQ ID NO: 1) (peptide)
peptide: LVHIQKWDGKETNFV
notes: also called Pool 4 FABP7
B6: FABP7 peptide #3 (Aa 12-26 of SEQ ID NO: 1) (peptide)
peptide: TNSQNFDEYMKALGV
notes: also called Pool 1 FABP7
B7: FABP7 peptide #16 (Aa 77-91 of SEQ ID NO: 1) (peptide)
peptide: DDRNCKSVVSLDGDK
notes: also called Pool 3 FABP7
B8: FABP7 peptide #15 (Aa 72-86 of SEQ ID NO: 1) (peptide)
peptide: DETTADDRNCKSVVS
notes: also called Pool 3 FABP7
B9: FABP7 peptide #23 (Aa 112-126 of SEQ ID NO: 6) (peptide)
peptide: GKMVMTLTFGDVVAV
notes: as for B3

One experiment addresses HLA DRB5 01:01 (Homo sapiens, UniProt P01903+Q30154). In words: Competitive binding assay of overlapping peptides to HLA. As to conditions: competitive binding to HLA DRB5 01:01, compared with reference H1N1 influenza peptide.
Turning to “Aa 02-16-SEQ ID NO: 1 (VEAFCATWKLTNSQN; listed as Homo sapiens) [FABP7 #1]”, the Binding affinity result is reported as “+”. Same read-out and setting: the entry for “Aa 07-21-SEQ ID NO: 1 (ATWKLTNSQNFDEYM; listed as Homo sapiens) [FABP7 #2]” is “+”; for “Aa 12-26-SEQ ID NO: 1 (TNSQNFDEYMKALGV; listed as Homo sapiens) [FABP7 #3]” it is “−”; for “Aa 17-31-SEQ ID NO: 1 (FDEYMKALGVGFATR; listed as Homo sapiens) [FABP7 #4]” it is “++”.

For “Aa 22-36-SEQ ID NO: 1 (KALGVGFATRQVGNV; listed as Homo sapiens) [FABP7 #5]”, the Binding affinity entry is “−”. As for “Aa 27-41-SEQ ID NO: 1 (GFATRQVGNVTKPTV; listed as Homo sapiens) [FABP7 #6]”, the Binding affinity result is reported as “+”. Same read-out and setting: the entry for “Aa 28-42-SEQ ID NO: 2 (AVITGACDKDSQCGG; listed as Homo sapiens) [PROK2 #1]” is “−”. Turning to “Aa 32-46-SEQ ID NO: 1 (QVGNVTKPTVIISQE; listed as Homo sapiens) [FABP7 #7]”, the Binding affinity entry is recorded as “−”. Still for that read-out and setting: the entry for “Aa 33-47-SEQ ID NO: 2 (ACDKDSQCGGGMCCA; listed as Homo sapiens) [PROK2 #2]” is “−”; for “Aa 37-51-SEQ ID NO: 1 (TKPTVIISQEGDKVV; listed as Homo sapiens) [FABP7 #8]” it is “−”.

With “Aa 38-52-SEQ ID NO: 2 (SQCGGGMCCAVSIWV; listed as Homo sapiens) [PROK2 #3]”, the Binding affinity entry is “−”. “Aa 42-56-SEQ ID NO: 1 (IISQEGDKVVIRTLS; listed as Homo sapiens) [FABP7 #9]”: the Binding affinity entry is reported as “−”. On the same count and under the same terms, with “Aa 43-57-SEQ ID NO: 2 (GMCCAVSIWVKSIRI; listed as Homo sapiens) [PROK2 #4]” the entry was “+”. Same read-out and setting: the entry for “Aa 47-61-SEQ ID NO: 1 (GDKVVIRTLSTFKNT; listed as Homo sapiens) [FABP7 #10]” is “+”; for “Aa 48-62-SEQ ID NO: 2 (VSIWVKSIRICTPMG; listed as Homo sapiens) [PROK2 #5]” it is “+”; for “Aa 52-66-SEQ ID NO: 1 (IRTLSTFKNTEISFQ; listed as Homo sapiens) [FABP7 #11]” it is “−”.

With “Aa 53-67-SEQ ID NO: 2 (KSIRICTPMGKLGDS; listed as Homo sapiens) [PROK2 #6]”, the Binding affinity result is recorded as “+++”. On the same count and under the same terms, the entry for “Aa 57-71-SEQ ID NO: 1 (TFKNTEISFQLGEEF; listed as Homo sapiens) [FABP7 #12]” is “−”; for “Aa 58-72-SEQ ID NO: 2 (CTPMGKLGDSCHPLT; listed as Homo sapiens) [PROK2 #7]” it is “−”. Same read-out and setting: the entry for “Aa 59-69 + 96-99-SEQ ID NO: 2 [PROK2 #15]” is “−”; for “Aa 62-76-SEQ ID NO: 1 (EISFQLGEEFDETTA; listed as Homo sapiens) [FABP7 #13]” it is “−”; for “Aa 63-77-SEQ ID NO: 2 (KLGDSCHPLTRKNNF; listed as Homo sapiens) [PROK2 #8]” it is “−”.

Turning to “Aa 64-69 + 96-104-SEQ ID NO: 2 [PROK2 #16]”, the Binding affinity result is given as “+”. Still for that read-out and setting: the entry for “Aa 67-81-SEQ ID NO: 1 (LGEEFDETTADDRNC; listed as Homo sapiens) [FABP7 #14]” is “−”; for “Aa 68-82-SEQ ID NO: 2 (CHPLTRKNNFGNGRQ; listed as Homo sapiens) [PROK2 #9]” it is “+”. Same read-out and setting: the entry for Aa 69 + 96-109-SEQ ID NO: 2 [PROK2 #17] is “−”; for “Aa 72-86-SEQ ID NO: 1 (DETTADDRNCKSVVS; listed as Homo sapiens) [FABP7 #15]” it is “−”. On the same count and under the same terms, with “Aa 73-87-SEQ ID NO: 2 (RKNNFGNGRQERRKR; listed as Homo sapiens) [PROK2 #10]” the entry was “+”; with “Aa 77-91-SEQ ID NO: 1 (DDRNCKSVVSLDGDK; listed as Homo sapiens) [FABP7 #16]”, “−”. Turning to “Aa 78-92-SEQ ID NO: 2 (GNGRQERRKRKRSKR; listed as Homo sapiens) [PROK2 #11]”, the Binding affinity result is on record as “−”. Still for that read-out and setting: the entry for “Aa 82-96-SEQ ID NO: 1 (KSVVSLDGDKLVHIQ; listed as Homo sapiens) [FABP7 #17]” is “−”; for “Aa 83-97-SEQ ID NO: 2 (ERRKRKRSKRKKEVP; listed as Homo sapiens) [PROK2 #12]” it is “−”.

As for “Aa 87-101-SEQ ID NO: 1 (LDGDKLVHIQKWDGK; listed as Homo sapiens) [FABP7 #18]”, the Binding affinity entry is “−”. Still for that read-out and setting: with “Aa 88-102-SEQ ID NO: 2 (KRSKRKKEVPFFGRR; listed as Homo sapiens) [PROK2 #13]” the entry was “−”. Turning to “Aa 92-106-SEQ ID NO: 1 (LVHIQKWDGKETNFV; listed as Homo sapiens) [FABP7 #19]”, the Binding affinity entry is on record as “−”. Same read-out and setting: with “Aa 93-107-SEQ ID NO: 2 (KKEVPFFGRRMHHTC; listed as Homo sapiens) [PROK2 #14]” the entry was “+”.

In the case of “Aa 97-111-SEQ ID NO: 1 (KWDGKETNFVREIKD; listed as Homo sapiens) [FABP7 #20]”, the Binding affinity result is “−”. For “Aa 100-114-SEQ ID NO: 2 (GRRMHHTCPCLPGLA; listed as Homo sapiens) [PROK2 #18]”, the Binding affinity entry is “−”. For “Aa 102-116-SEQ ID NO: 1 (ETNFVREIKDGKMVM; listed as Homo sapiens) [FABP7 #21]”, the Binding affinity entry is “+”. The same measure, in the same setting: the entry for “Aa 105-119-SEQ ID NO: 2 (HTCPCLPGLACLRTS; listed as Homo sapiens) [PROK2 #19]” is “−”; for “Aa 106-120-SEQ ID NO: 1 (VREIKDGKMVMVSND; listed as Homo sapiens) [FABP7 #25]” it is “−”; for “Aa 107-121-SEQ ID NO: 6 (REIKDGKMVMTLTFG; listed as Homo sapiens) [FABP7 #22]” it is “−”. For “Aa 110-124-SEQ ID NO: 2 (LPGLACLRTSFNRFI; listed as Homo sapiens) [PROK2 #20]”, the Binding affinity entry is on record as “++”.

Turning to “Aa 111-125-SEQ ID NO: 1 (DGKMVMVSNDNSPFF; listed as Homo sapiens) [FABP7 #26]”, the Binding affinity entry was “+”. Same read-out and setting: the entry for “Aa 112-126-SEQ ID NO: 6 (GKMVMTLTFGDVVAV; listed as Homo sapiens) [FABP7 #23]” is “−”. Still for that read-out and setting: with “Aa 115-129-SEQ ID NO: 2 (CLRTSFNRFICLAQK; listed as Homo sapiens) [PROK2 #21]” the entry was “+”. On to “Aa 116-130-SEQ ID NO: 1 (MVSNDNSPFFLVFFS; listed as Homo sapiens) [FABP7 #27]”, for which the Binding affinity result is “−”. Same read-out and setting: the entry for “Aa 118-132-SEQ ID NO: 6 (LTFGDVVAVRHYEKA; listed as Homo sapiens) [FABP7 #24]” is “+”. On the same count and under the same terms, with “Aa 121-135-SEQ ID NO: 1 (NSPFFLVFFSSPHTS; listed as Homo sapiens) [FABP7 #28]” the entry was “+++”. Consider “Aa 126-140-SEQ ID NO: 1 (LVFFSSPHTSHLLPS; listed as Homo sapiens) [FABP7 #29]”, for which the Binding affinity entry is listed as “+”.

As for “Aa 131-145-SEQ ID NO: 1 (SPHTSHLLPSSSLLL; listed as Homo sapiens) [FABP7 #30]”, the Binding affinity entry is given as “+”.

Regarding “Aa 136-150-SEQ ID NO: 1 (HLLPSSSLLLPFFLL; listed as Homo sapiens) [FABP7 #31]”, the Binding affinity entry is recorded as “−”. As to “Aa 141-155-SEQ ID NO: 1 (SSLLLPFFLLPSFFN; listed as Homo sapiens) [FABP7 #32]”, the Binding affinity entry is given as “−”. Take “Aa 146-160-SEQ ID NO: 1 (PFFLLPSFFNNTSLA; listed as Homo sapiens) [FABP7 #33]”: the Binding affinity result is given as “++”. On the same count and under the same terms, the entry for “Aa 152-166-SEQ ID NO: 1 (SFFNNTSLARFFNYM; listed as Homo sapiens) [FABP7 #34]” is “+”.

For a further experiment, the target named is HLA DRB5 01:01. In words: competitive HLA binding assay (legend: - No binding).
Conditions: not given
Consider B1, for which the binding result is listed as “no binding”. With B2, the binding result is recorded as “no binding”. B3: the binding result was “no binding”.

Take B4: the binding result is recorded as “no binding”. As for B5, the binding result is “no binding”. As for B6, the binding result was “no binding”. In the case of B7, the binding result was “no binding”. Regarding B8, the binding result was “no binding”. The same measure, in the same setting: the entry for B9 is “no binding”.

These data come from patent US20240158455A1, “MULTIPLE SCLEROSIS ASSOCIATED AUTOANTIGENS, AND USE THEREOF IN THERAPY AND DIAGNOSIS” (NEOGAP Therapeutics AB, priority 2017, published 2024).
